The results in this text go back to patent publication US20250186597A1, “TARGETED IMMUNE ACTIVATION WITH IL-18 IMMUNOCYTOKINES” (BRIGHT PEAK THERAPEUTICS AG, priority 2023, published 2025).

Positions count from the first letter of the chain named. In names and notes the source's numbering stands.

In assay [1] the test system is NK92 cells. In words: IFN gamma secretion assay in NK92 cells (Example 10). The assay is classed as cell-based, human. Conditions: IFNγ secretion, 1 ng/ml IL-12. Here is the method:
The IFNγ-secretion stimulating activity of the unconjugated IL-18 variants and corresponding IL-18 immunocytokines was evaluated on NK92 cell line. The NK cell line NK-92 derived from a patient with lymphoma (ATCC, Cat #CRL-2407) was cultured in aMEM medium supplemented with 12.5% FCS, 12.5% horse serum (HS), 50 uM B-mercaptoEthanol, and 2 ng/ml of recombinant Human Interleukin-2 (IL-2).
On the day of experiment, cells were harvested and washed with aMEM medium without IL-2 and resuspended in medium (w/o IL-2) containing 1 ng/ml of recombinant human Interleukin-12 (SinoBiologicals, Cat #CT011-H08H). After counting, cells were seeded at 100 000 cells/well in a 384 well titer plate and incubated at 37° C./5% CO2. Sixteen 4-fold serial dilutions of IL-18 analytes were prepared in aMEM medium—1 ng/ml IL-12 and were added to the NK-92 cells. […]
After 16-20 h incubation at 37° C./5% CO2, 5 μl of supernatant were carefully transferred to a 384 microwells OPTIPlate (Perkin Elmer; Cat #6007270) and Interferon-gamma (IFNγ) levels measured using the Human IFNγ AlphaLISA Assay Kit (Perkin Elmer, Cat #AL217C). […] AlphaLisa signal was then measured on an Enspire plate reader (Perkin Elmer) using 680 and 615 nm as excitation and emission wavelengths respectively. Half maximal effective concentration (EC50) was calculated based on a variable slope, four parameter analysis using GraphPad PRISM software.

Assay [2] addresses T1, human IL-18BP (Homo sapiens, UniProt O95998).
T1 construct: His
T1 sequence (O95998 31-194): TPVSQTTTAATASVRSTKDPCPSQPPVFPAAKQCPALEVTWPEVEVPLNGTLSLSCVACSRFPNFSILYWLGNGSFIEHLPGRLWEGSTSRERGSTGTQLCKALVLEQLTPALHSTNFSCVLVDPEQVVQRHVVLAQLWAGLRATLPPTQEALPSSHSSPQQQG
As to the kind of experiment: IL-18BP binding alphaLISA assay (Example 4, used in Example 22B). Conditions: IL-18BP AlphaLISA.

For assay [3], the system named is NK-92 cells. In words: IFNγ induction cellular assay in NK-92 cells (Example 4, used in Example 22C). The assay is classed as cell-based, human. The following applies: IFNg stimulation in NK92 cells.
The test system of assay [4] is NK-92 cells. As to the kind of experiment: IL-18 binding protein inhibition cellular assay in NK-92 cells (Example 4, used in Example 22C). The assay is classed as cell-based, human. The following applies: inhibition by IL-18BP of IFNg stimulation in NK92 cells. As to the method: The NK cell line NK-92 derived from a patient with lymphoma (ATCC® CRL-2407™) is cultured in aMEM medium supplemented with 20% FCS-Glutamax, 25 µM B-mercaptoethanol, and 100 IU/mL of recombinant human IL-2.
On the day of experiment, cells are harvested and washed with aMEM medium without IL-2 and containing 1 ng/mL of recombinant human IL-12. After counting, the cells are seeded at 100,000 cells/well in a 384 well titer plate and incubated at 37° C./5% CO2. Sixteen 2-fold serial dilutions of Fc-fused human IL-18 binding protein isoform a (IL-18BPa) are prepared in aMEM medium. 1 ng/mL of IL-12 containing 2 nM of each IL-18 polypeptide variant is added to the NK-92 cells. The final IL-18 analyte concentration is 1 nM, and the final IL-18BPa concentration ranged from 566 nM to […].
After incubating the cells for 16-20 hr at 37° C./5% CO2, 5 μL of the supernatant is carefully transferred to a 384 microwell OptiPlate. IFNγ levels are measured using a human IFNγ AlphaLISA Assay Kit. Briefly, 10 μL of 2.5× AlphaLISA anti-IFNγ acceptor beads and biotinylated antibody anti-IFNγ mix are added to 5 μL of NK-92 supernatants. The mixtures are incubated for 1 hr at room temperature with shaking. Under subdued light, 2.5 μL of 2×SA donor beads are pipetted in each well and incubated for 30 min at room temperature with shaking. AlphaLISA signals are then measured on an EnSpire™ plate reader using 680 nm and 615 nm as excitation and emission wavelengths, respectively. Half maximal inhibitory concentrations (IC50) are calculated based on a variable slope and four parameter analysis using GraphPad PRISM software.
The experiments described in Example 4 for determination of IFNg stimulation in NK92 cells (and inhibition by IL-18 BP) were performed substantially as described on IL-18 polypeptides in order to assess their activities and their suitability for incorporation into immunocytokine compositions. It is expected that the IL-18 polypeptides provided below would behave analagously to C086 (SEQ ID NO: 30) when incorporated into an immunocytokine composition as those otherwise provided herein.

B1: SEQ ID NO: 60: IL-18 polypeptide: E6K, C38Q, K53A (protein)
chain: YFGKLKSKLSVIRNLNDQVLFIDQGNRPLFEDMTDSDQRDNAPRTIFIISMYADSQPRGMAVTISVKCEKISTLSCENKIISFKEMNPPDNIKDTKSDIIFFQRSVPGHDNKMQFESSSYEGYFLACEKERDLFKLILKKEDELGDRSIMFTVQNED
B1 displayed an EC50 in assay [1] of 0.008 nM.

B2: C162: IL-18 polypeptide: K8E, V11I, C38A, C76A, Q103R, C127A (protein)
chain: B1 chain with K6E, K8E, V11I, Q38A, A53K, C76A, Q103R, C127A
As for B2, binding in assay [2] was put at a Kd of 0.85 nM. Further, the response in assay [3] was half-maximal at 0.061 nM (EC50). Further, the IC50 in assay [4] came to 7.29 nM.

B3: C164: IL-18 polypeptide: V11I, C38A, S55H, C76A, C127A (protein)
chain: B1 chain with K6E, V11I, Q38A, A53K, S55H, C76A, C127A
In assay [2], B3 displayed a Kd of 0.08 nM. This molecule also came in with an EC50 in assay [3] of 0.414 nM. Besides, in assay [4], the IC50 was determined as 0.456 nM.

B4: C167: IL-18 polypeptide: V11I, C38A, C76A, S105I, C127A (protein)
chain: B1 chain with K6E, V11I, Q38A, A53K, C76A, S105I, C127A
In assay [2], B4 had a Kd of 0.04 nM. The EC50 in assay [3] is 0.103 nM. The same molecule returned an IC50 in assay [4] of 0.809 nM.

B5: 35 (protein)
chain: B1 chain with Y1G, F2A, Q38C, M51G, D54A, S55A, T63A
On to B5, for which, in assay [2], the Kd is 969 nM. In assay [3], this molecule had an EC50 of over 55 nM. The molecule further returned an IC50 in assay [4] of over 55 nM.

B6: C168: IL-18 polypeptide: V11I, C38A, C76A, S105K, C127A (protein)
chain: B1 chain with K6E, V11I, Q38A, A53K, C76A, S105K, C127A
B6 showed a Kd in assay [2] of 0.05 nM. The molecule also displayed an EC50 in assay [3] of 0.098 nM. In assay [4], this molecule registered an IC50 of 0.176 nM.

B7: 62 (protein)
chain: B1 chain with Q38A, C127A
On to B7, for which, in assay [2], the Kd was found to be 69.6 nM. Besides, a half-maximal response in assay [3] (EC50) required 0.026 nM. The IC50 in assay [4] came out at 284 nM.

B8: C165: IL-18 polypeptide: V11I, C38A, S55R, C76A, C127A (protein)
chain: B1 chain with K6E, V11I, Q38A, A53K, S55R, C76A, C127A
B8: the Kd in assay [2] came to 0.15 nM. The molecule also showed an EC50 in assay [3] of 0.176 nM. In assay [4], this molecule had an IC50 of 0.885 nM.

B9: C160: IL-18 polypeptide: V11I, C38A, K53A, C76A, D110A, C127A (protein)
chain: B1 chain with K6E, V11I, Q38A, C76A, D110A, C127A
The molecule B9 had a Kd in assay [2] of 0.71 nM. Besides, the EC50 in assay [3] stood at 0.028 nM. The molecule further came in with an IC50 in assay [4] of 3.18 nM.

B10: C163: IL-18 polypeptide: V11I, C38A, C76A, Q103K, C127A (protein)
chain: B1 chain with K6E, V11I, Q38A, A53K, C76A, Q103K, C127A
For B10, in assay [2], the Kd turned out to be 0.05 nM. It took 0.093 nM to reach a half-maximal effect in assay [3] (EC50). In assay [4], the IC50 came to 0.823 nM.

B11: 59 (protein)
chain: B1 chain with Q38A
B11: the Kd in assay [2] came to 36 nM. Moreover, in assay [3], it took 0.015 nM to reach a half-maximal effect (EC50). Moreover, the half-maximal inhibitory concentration (IC50) in assay [4] came out at 654 nM.

B12: 60 (protein)
chain: B1 chain
As to B12, binding in assay [2] was put at a Kd of 24.8 nM. The EC50 in assay [3] is 0.006 nM. In assay [4], the IC50 amounted to 780 nM.

B13: C166: IL-18 polypeptide: V11I, C38A, S55T, C76A, C127A (protein)
chain: B1 chain with K6E, V11I, Q38A, A53K, S55T, C76A, C127A
For the molecule B13, in assay [2], binding was characterised by a dissociation constant (Kd) of 0.02 nM. Besides, the EC50 in assay [3] worked out at 0.098 nM. The same molecule showed an IC50 in assay [4] of 0.44 nM.

B14: 34 (protein)
chain: B1 chain with Q38C, S55A
As to B14, the Kd in assay [2] is over 1500 nM. The molecule further returned an EC50 in assay [3] of 0.824 nM. For the same molecule, in assay [4], the IC50 was 229 nM.

B15: C161: IL-18 polypeptide: K8R, V11I, C38A, C76A, Q103E, C127A (protein)
chain: B1 chain with K6E, K8R, V11I, Q38A, A53K, C76A, Q103E, C127A
For B15, in assay [2], the Kd amounted to 0.06 nM. In addition, the EC50 in assay [3] worked out at 0.057 nM. The molecule further yielded an IC50 in assay [4] of 1.07 nM.
